Assay results: patent US20140120095A1 (Boehringer Ingelheim, published 2014)

Key:
human Jagged-1 = target: T1, human Jagged-1 (human, UniProt P78504 34-1067, limits assumed); experiment: binding ELISA on coated recombinant human Jagged-1, OD 405 nm
T1 construct: also called hJagged-1; hJAG1
Experimental: (§1) Absence of binding to homologous ligands human DLL1 and human Jagged-1 is assessed via solid phase binding assay (ELISA). In brief, human DLL1 (Alexis, San Diego, Calif., USA) and human Jagged-1 (Alexis, San Diego, Calif., USA) are coated overnight at 4° C. at 1 μg/mL in a 96-well MaxiSorp plate (Nunc, Wiesbaden, Germany). Wells are blocked with a casein solution (1% in PBS). VHHs are applied as dilution series and binding is detected using a mouse anti-myc (Roche) and an anti-mouse-AP conjugate (Sigma, St. Louis, Mo., USA).

recombinant human DLL4 [1] = target: T2, recombinant human DLL4 (human, UniProt Q9NR61 25-522); experiment: competition AlphaScreen, biot-hDLL4/hNotch1-Fc
T2 construct: also called rhDLL4; hDLL4
Experimental: In brief, 1 nM biotinylated human DII4 is captured on streptavidin-coated donor beads (20 μg/mL), while 0.4 nM of the receptor human Notch1 (as a Fc fusion protein) is captured on anti-human Fc VHH-coated acceptor beads (20 μg/mL). Both loaded beads are incubated together with a dilution range of the competing VHH (FIG. 4 A-E).

recombinant human DLL4 [2] = target: T2, recombinant human DLL4; experiment: hDLL4 ELISA screen, periplasmic extract
human DLL1 = target: T3, human DLL1 (human, UniProt O00548 18-545, limits assumed); experiment: binding ELISA on coated recombinant human DLL1, OD 405 nm
T3 construct: also called hDLL1
T3 sequence (looked up): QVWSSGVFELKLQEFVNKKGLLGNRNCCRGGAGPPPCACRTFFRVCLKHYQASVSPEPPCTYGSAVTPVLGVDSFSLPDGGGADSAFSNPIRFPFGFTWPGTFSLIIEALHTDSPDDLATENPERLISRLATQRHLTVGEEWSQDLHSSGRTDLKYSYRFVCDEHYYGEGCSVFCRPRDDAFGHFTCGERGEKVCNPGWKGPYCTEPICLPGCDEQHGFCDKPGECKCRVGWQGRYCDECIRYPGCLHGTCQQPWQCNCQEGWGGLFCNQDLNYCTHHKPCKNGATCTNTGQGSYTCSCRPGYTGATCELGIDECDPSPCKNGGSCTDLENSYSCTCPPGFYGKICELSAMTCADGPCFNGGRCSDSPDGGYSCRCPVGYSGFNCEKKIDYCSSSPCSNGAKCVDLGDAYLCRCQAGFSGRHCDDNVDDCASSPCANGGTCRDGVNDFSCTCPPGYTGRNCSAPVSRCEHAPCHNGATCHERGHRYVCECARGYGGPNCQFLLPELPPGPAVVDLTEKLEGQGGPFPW
Experimental: as §1

recombinant human DLL4 [3] = target: T2, recombinant human DLL4; experiment: binding ELISA, coated rhDLL4
Experimental: (§2) In order to determine cross-reactivity to mouse DII4 a binding ELISA is performed. […] Wells are blocked with a casein solution (1% in PBS). VHHs are applied as dilution series and binding is detected using a mouse anti-myc (Roche) and an anti-mouse-AP conjugate (Sigma, St Louis, Mo., USA) (FIG. 7 A-H). As reference, binding to human DII4 is measured.

recombinant mouse DLL4 = target: T4, recombinant mouse DLL4 (mouse, UniProt Q9JI71 27-532); experiment: binding ELISA on coated recombinant mouse DLL4, OD 405 nm
T4 construct: extracellular domain; also called rmDLL4; mDLL4
T4 sequence (Q9JI71 27-532): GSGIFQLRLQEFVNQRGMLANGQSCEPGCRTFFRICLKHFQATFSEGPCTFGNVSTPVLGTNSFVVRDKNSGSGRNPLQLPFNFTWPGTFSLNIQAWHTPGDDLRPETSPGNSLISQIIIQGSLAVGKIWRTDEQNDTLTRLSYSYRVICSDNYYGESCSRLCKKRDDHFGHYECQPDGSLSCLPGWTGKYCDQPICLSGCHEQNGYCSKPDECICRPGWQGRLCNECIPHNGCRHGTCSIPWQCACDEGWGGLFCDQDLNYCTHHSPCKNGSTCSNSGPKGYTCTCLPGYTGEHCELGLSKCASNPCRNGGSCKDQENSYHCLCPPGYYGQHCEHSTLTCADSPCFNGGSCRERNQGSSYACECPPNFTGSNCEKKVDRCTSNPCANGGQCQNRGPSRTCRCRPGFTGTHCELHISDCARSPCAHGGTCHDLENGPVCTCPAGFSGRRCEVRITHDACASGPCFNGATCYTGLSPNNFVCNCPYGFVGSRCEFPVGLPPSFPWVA
Experimental: as §2

[4] = target: T5, human DLL4 overexpressed on cells (human, UniProt Q9NR61 27-685); experiment: competitive FMAT, hNotch1-Fc on CHO-hDLL4
T5 construct: full length human DLL4 on CHO or HEK293 cells; also called CHO-hDLL4; CHO-hDII4

[5] = target: T6, human DLL4, full length, overexpressed on cells (human, UniProt Q9NR61 27-685); experiment: cell-based or functional assay
[6] = target: T6, human DLL4, full length, overexpressed …; experiment: FMAT, hNotch1-Fc on CHO-hDLL4, -HSA
[7] = target: T6, human DLL4, full length, overexpressed …; experiment: FMAT, hNotch1-Fc on CHO-hDLL4, +25 uM HSA
[8] = target: T7, mouse DLL4, full length, overexpressed on CHO cells (mouse, UniProt Q9JI71 27-686); experiment: FMAT, hNotch1-Fc on CHO-mDLL4, +25 uM HSA
T7 construct: whole, on cells; also called mDLL4; CHO-mDLL4
T7 sequence (Q9JI71 27-686): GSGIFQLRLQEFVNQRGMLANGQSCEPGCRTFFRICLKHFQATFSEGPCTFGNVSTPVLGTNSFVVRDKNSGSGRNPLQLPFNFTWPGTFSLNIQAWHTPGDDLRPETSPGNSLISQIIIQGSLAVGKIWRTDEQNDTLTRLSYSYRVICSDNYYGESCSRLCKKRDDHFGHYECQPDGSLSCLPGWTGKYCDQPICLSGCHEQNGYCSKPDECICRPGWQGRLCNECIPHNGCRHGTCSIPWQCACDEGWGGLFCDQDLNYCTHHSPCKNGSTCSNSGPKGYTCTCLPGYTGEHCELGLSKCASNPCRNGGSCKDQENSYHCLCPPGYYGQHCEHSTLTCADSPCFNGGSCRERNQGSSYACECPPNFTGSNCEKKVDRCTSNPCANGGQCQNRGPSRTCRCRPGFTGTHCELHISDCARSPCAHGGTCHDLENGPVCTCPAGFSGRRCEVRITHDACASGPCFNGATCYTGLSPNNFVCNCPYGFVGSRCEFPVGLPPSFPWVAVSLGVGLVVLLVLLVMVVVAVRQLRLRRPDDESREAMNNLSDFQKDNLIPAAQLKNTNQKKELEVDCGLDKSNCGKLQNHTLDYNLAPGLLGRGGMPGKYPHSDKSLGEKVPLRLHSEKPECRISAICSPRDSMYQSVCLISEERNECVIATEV

[9] = target: T7, mouse DLL4, full length, overexpressed …; experiment: FMAT, hNotch1-Fc on CHO-mDLL4, -HSA
[10] = target: T8, recombinant human VEGF165 (human, UniProt P15692-4 27-191, biotinylated in the competition assays); experiment: AlphaScreen, hVEGF165/hVEGFR2-Fc competition, -HSA
T8 construct: Bought protein; also called hVEGF165; rhVEGF165
T8 sequence (P15692 other isoform, or with tags, fused parts or gaps): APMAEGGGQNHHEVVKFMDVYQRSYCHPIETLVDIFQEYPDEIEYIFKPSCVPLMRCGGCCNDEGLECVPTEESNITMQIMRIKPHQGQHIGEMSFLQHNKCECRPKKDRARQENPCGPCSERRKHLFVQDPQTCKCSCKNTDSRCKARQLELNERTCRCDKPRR

[11] = target: T8, recombinant human VEGF165; experiment: AlphaScreen, hVEGF165/hVEGFR1-Fc competition, -HSA
[12] = target: T8, recombinant human VEGF165; experiment: AlphaScreen, hVEGF165/hVEGFR2-Fc competition, +5 uM HSA
Experimental: These 2 competition assays are also performed after preincubation of the VHHs with 5 μM human serum albumin.

[13] = target: VEGF (used to stimulate HUVEC cells) (UniProt P15692-4 27-191, limits assumed); experiment: cell-based or functional assay
Chain of VEGF (used to stimulate HUVEC cells) (P15692 other isoform, or with tags, fused parts or gaps limits assumed): as the sequence (P15692 other isoform, or with tags, fused parts or gaps) above

recombinant human DLL4 [14] = target: T2, recombinant human DLL4; experiment: competition ELISA, biot-hDLL4 to coated hNotch1-Fc
From the text: Residual binding of biotinylated human DII4 is detected using horseradish peroxidase (HRP) conjugated extravidin (Sigma, St. Louis, Mo., USA) (FIG. 3 A-C). Human DII4 is biotinylated as described above.

Binder	binding result (human Jagged-1)	IC50 (recombinant human DLL4 [1]) [nM]	% inh (recombinant human DLL4 [2]) [%]	binding result (human DLL1)	EC50 (recombinant human DLL4 [3]) [nM]	binding result (recombinant mouse DLL4)	IC50, DLL4 mediated reporter assay, +HSA [5] [nM]	% inh [6] [%]	IC50 [6] [nM]	% inh [7] [%]	IC50 [7] [nM]	% inh [8] [%]	IC50 [8] [nM]	% inh [9] [%]	IC50 [9] [nM]	also measured
DLLBII07B05 (VHH, also called DLLBII7B05) VHH: EVQLVESGGGLVQAGGSLRLSCAASGFALDYYAVGWFRQAPGKEREGVSCISSRGGSTFYADSVKGRFTTSRNNAKNTVYLQMNSLKPEDTAVYYCAAHPLQNCCGGSAYASPEAVYEYWGQGTQVTVSS	no binding (tested: 2.5e-7 M)	1.1	84	no binding (tested: 2.5e-7 M)	7.2	no binding (tested: 2.5e-7 M)										
DLLBII08A09 (VHH, also called DLLBII8A09) VHH: EVQLVESGGGLVQPGGSLRLSCAASGFTLDYYNIGWFRQAPGKEREWVSCINSSDGSTYYADSVKGRFTISRDNAKNTVYLQMNSLKPEDTAVYYCAAPFAYYSNLCGVNGYDYWGQGTQVTVSS	no binding (tested: 2.5e-7 M)	0.4	96	no binding (tested: 2.5e-7 M)	0.9	no binding (tested: 2.5e-7 M)										IC50 [4]: 5.5 nM
DLLBII136C07 (VHH, not shown: small tags and cut ends) VHH: EVQLVESGGGLVQPGGSLRLSCAASGFTFGSYDMSWVRRSPGKGPEWVSSINSGGGSTYYADYVKGRFTISRDNAKNTLYLQMNSLKPEDTAVYYCAADRYIWARQGEYWGAYEYDYWGQGTQVTVSS							103	94	6.8	94	7.1	100	17.6	100	16.4	
VEGFDLLBII013 (bispecific antibody, PEGylated at the Cys at position 15 of the 35 Gly-Ser linker, VEGFBII23B04 - 35GS(Cys15) - DLLBII129B05) EVQLVESGGGLVQTGDSLRLSCEVSGRTFSSYSMGWFRQAQGKEREFVVAISKGGYKYDSVSLEGRFTISKDNAKNTVYLQINSLKPEDTAVYYCASSRAYGSSRLRLADTYEYWGQGTQVTVSSGGGGSGGGGSGGGGCGGGGSGGGGSGGGGSGGGGSEVQLVESGGGLVQAGGSLRLSCAASGRTFSSYAMAWYRQAPGKEREYVAAIRWSGGTAYYADSVQGRFTISRDNAKNTVYLQMNSLKPEDTAVYYCANRAPDTRLAPYEYDHWGQGTQVTVSS							98.5	100	12.2	100	12.4	100	23.8	100	19.3	% inh [10]: 100%; IC50 [10]: 0.18 nM; % inh [11]: 62%; IC50 [11]: 0.24 nM; % inh [12]: 100%; IC50 [12]: 0.17 nM; % inhibition, VEGF HUVEC proliferation assay, -HSA [13]: 92%; IC50, VEGF HUVEC proliferation assay, -HSA [13]: 0.73 nM
DLLBII6B11 (VHH, also called DLLBII06B1) VHH: EVQLVESEGGLVQAGGSLRLSCAASGSTFSSYAMGWYRQAPGKQRELVAVISNGGITNYPNSVKGRFTISRDNAKNTVYLQMNSLKPEDTAVYYCFYSGSYYYPTDVHEYDYWGQGTQVTVSS	no binding (tested: 2.5e-7 M)	0.3	98	no binding (tested: 2.5e-7 M)	1.4	no binding (tested: 2.5e-7 M)										IC50 [4]: 8.9 nM; IC50 (recombinant human DLL4 [14]): 1.5 nM
DLLBII07A02 (VHH) VHH: EVQLVESGGGLVQAGGSLRLSCAASGSTFNSYAMGWYRQAPGKQREWVAAFSTGGSTNYADSVKGRFTISRDNAKNTVYLQMNSLKPEDTAVYYCFYSGSYYYPTDVFEYDYWGQGTQVTVSS	no binding (tested: 2.5e-7 M)	0.4		no binding (tested: 2.5e-7 M)	1.4	no binding (tested: 2.5e-7 M)										
DLLBII129B05 (VHH, not shown: small tags and cut ends) VHH: EVQLVESGGGLVQAGGSLRLSCAASGRTFSSYAMAWYRQAPGKEREYVAAIRWSGGTAYYADSVQGRFTISRDNAKNTVYLQMNSLKPEDTAVYYCANRAPDTRLAPYEYDHWGQGTQVTVSS							88	90	3.2	90	4.3	100	3.7	100	3	
DLLBII05B11 (VHH, also called DLLBII5B11) VHH: EVQLVESGGGLVQPGGSLRLSCAISGFTLDLHVIGWLRQAPGKEREWVSCISSSDGSTYYADSVKGRFTISRDNAKNTVYLQMNSLKPEDTAVYYCAAPWDSWYCGIGNDYDYWGQGTQVTVSS	no binding (tested: 2.5e-7 M)	0.7	98	no binding (tested: 2.5e-7 M)	1.8	no binding (tested: 2.5e-7 M)										
VEGFDLLBII012 (bispecific antibody, PEGylated at the Cys at position 15 of the 35 Gly-Ser linker, VEGFBII23B04 - 35GS(Cys15) - DLLBII136C07) EVQLVESGGGLVQTGDSLRLSCEVSGRTFSSYSMGWFRQAQGKEREFVVAISKGGYKYDSVSLEGRFTISKDNAKNTVYLQINSLKPEDTAVYYCASSRAYGSSRLRLADTYEYWGQGTQVTVSSGGGGSGGGGSGGGGCGGGGSGGGGSGGGGSGGGGSEVQLVESGGGLVQPGGSLRLSCAASGFTFGSYDMSWVRRSPGKGPEWVSSINSGGGSTYYADYVKGRFTISRDNAKNTLYLQMNSLKPEDTAVYYCAADRYIWARQGEYWGAYEYDYWGQGTQVTVSS							582	100	44.9	100	41.5	100	103	100	95.3	% inh [10]: 100%; IC50 [10]: 0.19 nM; % inh [11]: 60%; IC50 [11]: 0.27 nM; % inh [12]: 100%; IC50 [12]: 0.22 nM
